Laboratory results: patent publication US20260356960 (published 2026)
Where no end group is shown, it is not given here.

T1: sST2 recombinant (human)
T1 chain: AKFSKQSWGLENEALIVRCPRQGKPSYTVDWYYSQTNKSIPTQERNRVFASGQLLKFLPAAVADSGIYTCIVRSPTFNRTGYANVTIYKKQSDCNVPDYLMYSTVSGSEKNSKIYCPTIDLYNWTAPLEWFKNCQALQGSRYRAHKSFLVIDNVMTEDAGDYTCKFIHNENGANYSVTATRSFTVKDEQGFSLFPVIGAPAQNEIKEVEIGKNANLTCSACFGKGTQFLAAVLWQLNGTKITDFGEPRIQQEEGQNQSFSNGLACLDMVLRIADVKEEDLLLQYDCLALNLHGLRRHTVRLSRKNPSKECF

T2: SKECF peptide (human, not fully specified)
T2 chain: SKECF


Key:
sST2 recombinant = target: T1, sST2 recombinant; experiment: ELISA
SKECF peptide = target: T2, SKECF peptide; experiment: SPR

Row | Kd (sST2 recombinant) [µM] | Kd (SKECF peptide) [µM] | Binder
1 | 23 |  | scFv-αsST2 (scFv 96-1) (antibody, listing feature) MQVQLQQWGAGLLKPSETLSLTCAVYGGSFSGYYWSWIRQPPGKGLEWIGEINHSGSTNYNPSLKSRVTVSLDTSKNQFSLKLSSVTAADTAVYYCARGRGLVRFDSWGQGTTVTVSSGGGGSGGGGSGGGGSEIVLTQSPGTLSLSPGDRATLSCRASQFVGSSSVAWYQQRPGQAPRLLIYAAVSRASGIPDRFSGGGSGTDFTLTISRLEPEDSAVYYCLQYGSALYTFGQGTKLEIK
2 |  | 1.71 | scFv-αsST2 (scFv 96-1) (antibody) MQVQLQQWGAGLLKPSETLSLTCAVYGGSFSGYYWSWIRQPPGKGLEWIGEINHSGSTNYNPSLKSRVTVSLDTSKNQFSLKLSSVTAADTAVYYCARGRGLVRFDSWGQGTTVTVSSGGGGSGGGGSGGGGSEIVLTQSPGTLSLSPGDRATLSCRASQFVGSSSVAWYQQRPGQAPRLLIYAAVSRASGIPDRFSGGGSGTDFTLTISRLEPEDSAVYYCLQYGSALYTFGQGTKLEIK
